Key:
[1] = molecular target: HIV-1JR-FL Env trimers on the surface of transfected 293T cells (Human immunodeficiency virus 1, strain JR-FL); assay: JR-FL cell surface binding, flow cytometry on transfected 293T cells
[2] = molecular target: HIV-1 JR-FL envelope (Env) on pseudovirus (HIV-1 JR-FL)
[3] = molecular target: HIV-1 JR-FL envelope (Env) on pseudovirus (HIV-1 JR-FL); remark: listed apart in the source
[4] = molecular target: gp120 (ELISA antigen of FIG. 3, strain not stated) (HIV-1, strain not stated); assay: ELISA on coated gp120, absorbance at 405 nm
PGT 128 = assay: Neoglycolipid microarray binding, PGT 128; conditions: PGT 128 at 10 μg/ml pre-complexed with biotinylated anti-human-IgG; 5 fmol/spot
Experimental: (§1) The microarrays (designated N-glycan-related Array Set 1) consisted of NGLs prepared by reductive amination (70) or oxime ligation (71) (Table S5). These were robotically printed onto nitrocellulose-coated glass slides as described (72), each at two levels (2 and 5 fmol/spot) in duplicate. The binding assays (70) were performed at ambient temperature. The PGTs 127 and 128 were pre-complexed with biotinylated anti-human-IgG (Vector) at a 1:3 ratio, w/w, before applying onto the slides at a final concentration of 10 μg/ml. Biotinylated ConA (Vector) was tested at 0.5 μg/ml. Binding was detected with Alexa-Fluor 647 labelled streptavidin (Molecular Probes) at 1 μg/ml. Microarray data analysis was performed with dedicated software. Binding signals were oligosaccharide dose-related. Results at 5 fmol/spot with selected oligomannose NGLs (prepared by reductive amination) are in FIG. 9A, and the full data with the 50 NGLs are shown in Table S6. Included for comparison are the results with human 2G12 (Polymun Scientific) taken from an earlier experiment performed using a different version of microarrays (73). Antibody 2G12 was analyzed at 1:10000 dilution (without pre-complexation), and the binding was detected with biotinylated anti-human-IgG followed by Alexa-Fluor 647 labelled streptavidin.

2G12 = 2G12 at 1:10000 dilution; earlier experiment, different version of the microarray; cited from earlier work
plant lectin ConA = molecular target: T1, plant lectin ConA (Canavalia ensiformis, UniProt P02866); assay: Neoglycolipid microarray binding, ConA; conditions: biotinylated ConA at 0.5 μg/ml
T1 construct: purchased Vector
Experimental: as §1

PGT 127 = assay: Neoglycolipid microarray binding, PGT 127; conditions: PGT 127 at 10 μg/ml pre-complexed with biotinylated anti-human-IgG; 5 fmol/spot
Experimental: as §1

[5] = molecular target: HIV-1 JR-CSF envelope (Env) on pseudovirus (HIV-1 JR-CSF) (UniProt P20871); assay: cell-based or functional assay
[6] = molecular target: HIV-1 BaL envelope (Env) on pseudovirus (HIV-1 BaL); assay: cell-based or functional assay
[7] = molecular target: gp120 JR-CSF (HIV-1 JR-CSF) (UniProt P20871); assay: gp120 ELISA
[8] = molecular target: gp120 JR-FL (HIV-1 JR-FL); assay: gp120 ELISA
gp120 BaL (HIV-1 BaL) = assay: gp120 ELISA
[9] = molecular target: HIV-1 JR-FL envelope (Env) on pseudovirus (HIV-1 JR-FL); assay: cell-based or functional assay

Molecule | Fold change in neutralization (IC50 variant/IC50 WT antibody) [5] [fold] | Fold change in neutralization (IC50 variant/IC50 WT antibody) [6] [fold] | fold change in gp120 binding (EC50 variant/EC50 WT) [7] [fold] | fold change in gp120 binding (EC50 variant/EC50 WT) [8] [fold] | fold change in gp120 binding (EC50 variant/EC50 WT) (gp120 BaL (HIV-1 BaL)) [fold] | other results
2G12 IgG (antibody) | – | – | – | – | – | EC50 [1]: 11.6 nM; IC50 (JR-FL neutralization) [2]: 8.5 nM
128 (-ASYWNR) (antibody) | – | – | – | – | – | IC50 (read off the curve; HIV-1JR-FL pseudovirus) [3]: 0.7 µg/mL; EC50 (read off the curve) [4]: 0.7 µg/mL
CCCCCCCCCCCCCCCCOCC(COP(=O)(O)OCCNCC(NC(C)=O)C(O)C(OC1OC(CO)C(OC2OC(COC3OC(COC4OC(CO)C(O)C(O)C4O)C(O)C(OC4OC(CO)C(O)C(O)C4O)C3O)C(O)C(O)C2O)C(O)C1NC(C)=O)C(O)CO)OCCCCCCCCCCCCCCCC (centres unmarked) [Man4bGN2-DH] | – | – | – | – | – | Fluorescence signal intensity 128 (PGT 128): — (Signal less than 1); Fluorescence signal intensity 2G12 (2G12): — (Signal less than 1); Fluorescence signal intensity ConA (plant lectin ConA): 16,615; Fluorescence signal intensity 127 (PGT 127): — (Signal less than 1)
CCCCCCCCCCCCCCCCOCC(COP(=O)(O)OCCNCC(O)C(OC1OC(CO)C(O)C(O)C1O)C(O)C(O)COC1OC(COC2OC(CO)C(O)C(O)C2O)C(O)C(OC2OC(CO)C(O)C(O)C2O)C1O)OCCCCCCCCCCCCCCCC (stereo not drawn) [Man5(α3,α6)-DH] | – | – | – | – | – | Fluorescence signal intensity 128 (PGT 128): — (Signal less than 1); Fluorescence signal intensity 2G12 (2G12): 34; Fluorescence signal intensity ConA (plant lectin ConA): 15,291; Fluorescence signal intensity 127 (PGT 127): — (Signal less than 1)
CCCCCCCCCCCCCCCCOCC(COP(=O)(O)OCCNCC(NC(C)=O)C(O)C(OC1OC(CO)C(OC2OC(COC3OC(COC4OC(CO)C(O)C(O)C4O)C(O)C(OC4OC(CO)C(O)C(O)C4O)C3O)C(O)C(OC3OC(CO)C(O)C(O)C3O)C2O)C(O)C1NC(C)=O)C(O)CO)OCCCCCCCCCCCCCCCC (centres unmarked) [Man5GN2-DH] | – | – | – | – | – | Fluorescence signal intensity 128 (PGT 128): — (Signal less than 1); Fluorescence signal intensity 2G12 (2G12): — (Signal less than 1); Fluorescence signal intensity ConA (plant lectin ConA): 16,390; Fluorescence signal intensity 127 (PGT 127): — (Signal less than 1)
CCCCCCCCCCCCCCCCOCC(COP(=O)(O)OCCNCC(NC(C)=O)C(O)C(OC1OC(CO)C(OC2OC(COC3OC(COC4OC(CO)C(O)C(O)C4O)C(O)C(OC4OC(CO)C(O)C(O)C4O)C3O)C(O)C(OC3OC(CO)C(O)C(O)C3OC3OC(CO)C(O)C(O)C3O)C2O)C(O)C1NC(C)=O)C(O)CO)OCCCCCCCCCCCCCCCC (centres unmarked) [Man6GN2-DH] | – | – | – | – | – | Fluorescence signal intensity 128 (PGT 128): — (Signal less than 1); Fluorescence signal intensity 2G12 (2G12): 49; Fluorescence signal intensity ConA (plant lectin ConA): 19,006; Fluorescence signal intensity 127 (PGT 127): — (Signal less than 1)
CCCCCCCCCCCCCCCCOCC(COP(=O)(O)OCCNCC(NC(C)=O)C(O)C(OC1OC(CO)C(OC2OC(COC3OC(COC4OC(CO)C(O)C(O)C4OC4OC(CO)C(O)C(O)C4O)C(O)C(OC4OC(CO)C(O)C(O)C4OC4OC(CO)C(O)C(O)C4O)C3O)C(O)C(OC3OC(CO)C(O)C(O)C3OC3OC(CO)C(O)C(O)C3OC3OC(CO)C(O)C(O)C3O)C2O)C(O)C1NC(C)=O)C(O)CO)OCCCCCCCCCCCCCCCC (centres unmarked) [Man9GN2-DH] | – | – | – | – | – | Fluorescence signal intensity 128 (PGT 128): 26,071; Fluorescence signal intensity 2G12 (2G12): 11,717; Fluorescence signal intensity ConA (plant lectin ConA): 21,359; Fluorescence signal intensity 127 (PGT 127): 24,209
Glcα-6Glcα-6Glcα-6Glcα-6Glcα-6Glc-AO [Dextran-6-AO] | – | – | – | – | – | Fluorescence signal intensity 128 (PGT 128): — (Signal less than 1); Fluorescence signal intensity 2G12 (2G12): — (Signal less than 1); Fluorescence signal intensity ConA (plant lectin ConA): 1,138; Fluorescence signal intensity 127 (PGT 127): — (Signal less than 1)
PGT 127 Fab | – | – | – | – | – | EC50 [1]: 12.7 nM; IC50 (JR-FL neutralization) [2]: 14.6 nM
PGT 128 Fab | – | – | – | – | – | EC50 [1]: 10.3 nM; IC50 (JR-FL neutralization) [2]: 6.3 nM
PGT 128 IgG variant HC A30S (antibody) | 0.9 | 1.4 | 0.8 | 0.7 | 0.6 | –
PGT 128 IgG variant HC A31S (antibody) | 1.1 | 1.2 | 0.8 | 1.1 | 0.9 | –
PGT 128 IgG variant HC D27A (antibody) | 0.9 | 1.6 | 1.1 | 1 | 1.1 | –
PGT 128 IgG variant HC D72A (antibody) | 1 | 1.2 | 0.9 | 0.7 | 0.7 | –
PGT 128 IgG variant HC G55D (antibody) | 2 | 2.3 | 0.7 | 1.4 | 2.5 | –
PGT 128 IgG variant HC H52aA (antibody) | 2.4 | 9.8 | 64 | 2.8 | 2.4 | Fold change in neutralization (IC50 variant/IC50 WT antibody) [9]: 146 fold; EC50 (read off the curve) [4]: 0.09 µg/mL
PGT 128 IgG variant HC H59A (antibody) | 6.8 | 11.5 | 1 | 0.8 | 1 | Fold change in neutralization (IC50 variant/IC50 WT antibody) [9]: 12.4 fold
PGT 128 IgG variant HC K100gA (antibody) | 142 | 1700 | – | 22.3 | 28 | Fold change in neutralization (IC50 variant/IC50 WT antibody) [9]: > 3000 fold; EC50 (read off the curve) [4]: 1 µg/mL
PGT 128 IgG variant HC L51A (antibody) | 1.2 | 1.2 | 0.7 | 0.7 | 1.5 | –
PGT 128 IgG variant HC L100A (antibody) | 0.8 | 2 | 1.7 | – | 1.3 | –
PGT 128 IgG variant HC N33A (antibody) | 0.7 | 0.4 | 0.5 | 0.6 | 0.8 | –
PGT 128 IgG variant HC R54A (antibody) | 0.6 | 2.3 | 0.9 | 0.5 | 0.6 | –
PGT 128 IgG variant HC R100aA (antibody) | 1.3 | 2.1 | 0.7 | 1 | 1.5 | –
PGT 128 IgG variant HC W52fA (antibody) | 3.9 | 29.5 | 1.5 | 1 | 1.5 | Fold change in neutralization (IC50 variant/IC50 WT antibody) [9]: 34.5 fold
PGT 128 IgG variant HC W100eA (antibody) | 29.7 | 658 | 17.4 | 9.4 | 15 | Fold change in neutralization (IC50 variant/IC50 WT antibody) [9]: > 3000 fold; EC50 (read off the curve) [4]: 0.5 µg/mL
PGT 128 IgG variant HC Y52eA (antibody) | 2.1 | 12.9 | 1.2 | 0.7 | 0.9 | Fold change in neutralization (IC50 variant/IC50 WT antibody) [9]: 21.1 fold

From patent US9999664B2, “HIV-1 gp120 mini V3 loop and uses thereof” (The Scripps Research Institute, priority 2011, dated 2018)
